Read-outs that look alike come from different tables or passages of the source.
Experiments:
Format in all cases: biochemical, Drosophila melanogaster
[1] = substrate: Nc1nc2c(ncn2[C@@H]2O[C@H](COP(=O)(O)OP(=O)(O)OP(=O)(O)O)[C@@H](O)[C@H]2O)c(=O)[nH]1
[2] = substrate: Nc1nc2c(ncn2[C@@H]2O[C@H](COP(=O)(O)OP(=O)(O)OP(=O)(O)O)[C@@H](O)[C@H]2O)c(=O)[nH]1; remark: listed apart in the source
[3] = substrate: Nc1nc2c(ncn2[C@@H]2O[C@H](COP(=O)(O)OP(=O)(O)OP(=O)(O)O)[C@@H](O)[C@H]2O)c(=O)[nH]1; remark: listed apart in the source
[4] = substrate: Nc1nc2c(ncn2[C@@H]2O[C@H](COP(=O)(O)OP(=O)(O)OP(=O)(O)O)[C@@H](O)[C@H]2O)c(=O)[nH]1; remark: listed apart in the source

B1: Gyc-88EL (Drosophila melanogaster) (protein)
chain: MYGLLLENLSEYIKSVYGEEKWEDIRRQAGIDSPSFSVHQVYPENLLQKLAKKAQQVLGVSERDFMDQMGVYFVGFVGQYGYDRVLSVLGRHMRDFLNGLDNLHEYLKFSYPRMRAPSFICENETKQGLTLHYRSKRRGFVYYTMGQIREVARYFYHKEMHIELVREEILFDTVHVTFQLTFDNRAFTLASLAMTREEKHLPISAHVLFEIFPFCMVFGADMVVRSIGNSLMVILPELLGKKITAWFDLVRPLIAFKFQTILNRTNNIFELVTVDPVTERFDVQNEDLLQHEDGSEPEKSLRLKGQMVYMENWRMIMFLGTPVMPDLTSLITTGLYINDLSMHDFSRDLMLAGTQQSVELKLALDQEQQKSKKLEESMRLLDEEMRRTDELLYQMIPKQVADRLRRGENPIDTCEMFDSVSILFSDIVTFTEICSRITPMEVVSMLNAMYSIFDKLTERNSVYKVETIGDAYMVVAGAPDKDANHAERVCDMALDMVDAITDLKDPSTGQHLRIRVGVHSGAVVAGIVGLKMPRYCLFGDTVNTASRMESTSIAMKVHISESTKVLIGPNYKIIERGEIDVKGKGTMGTYWLEERENRLPLQLTAALQVHPLSPVPPTPTPKTKAIMPPVSKPLTPMMPVSVSLAASMPTSNVPAVDVMASSSSISGLALTAAAAAHMSLHHQAVVAEALTGASVEVALPSVASGATGAAAGGGAPSDDRNSRIYSPVTFKDVARRSVANSPVRSCAQPDQERRRESRSNSTGHVFMRTPSEIFGSLILDTEEFLEDLQISRSSLANNNNNQSPCGFSPTPPFRIGSAPPKPRPSNPDKFTPEELAAMDQLTPPSTAPARETASCSSASLDRDKATKLKKITFSNSSSLDATTPTALAAVVCPMRTKSPPMAVAPVMHMVQASTSKGDGQRPGSKDSVSSISLHSPPPHRSNSAPARPHSMSKAARKAFLAAKQTKAMEKLDKMIEEVQEVESQSVAKAANMRLALYGHDGGGDLAAGGCPLFLPPPPQQQQQQQQSLMPSSISDSGLCSHGHSHAPSCHHMDPKMTNSQSFQHSPRGGITHQCCSGFGHGNGRHSHRMHSNACRIL
**Q.** What does the source list for B1?
**A.** Km ([1]; other: in the presence of Mg2+): 1730 ± 1300 µM; Vmax ([1]; other: in the presence of Mg2+): 1.32 ± 0.33 pmoles cGMP/min/mg protein; Km ([1]; other: in the presence of Mn2+): 32 ± 11 µM; Vmax ([1]; other: in the presence of Mn2+): 2.26 ± 0.16 pmoles cGMP/min/mg protein

B2: Gyc-88EL/89Da (Drosophila melanogaster) (protein)
chain 1: MYGLLLENLSEYIKSVYGEEKWEDIRRQAGIDSPSFSVHQVYPENLLQKLAKKAQQVLGVSERDFMDQMGVYFVGFVGQYGYDRVLSVLGRHMRDFLNGLDNLHEYLKFSYPRMRAPSFICENETKQGLTLHYRSKRRGFVYYTMGQIREVARYFYHKEMHIELVREEILFDTVHVTFQLTFDNRAFTLASLAMTREEKHLPISAHVLFEIFPFCMVFGADMVVRSIGNSLMVILPELLGKKITAWFDLVRPLIAFKFQTILNRTNNIFELVTVDPVTERFDVQNEDLLQHEDGSEPEKSLRLKGQMVYMENWRMIMFLGTPVMPDLTSLITTGLYINDLSMHDFSRDLMLAGTQQSVELKLALDQEQQKSKKLEESMRLLDEEMRRTDELLYQMIPKQVADRLRRGENPIDTCEMFDSVSILFSDIVTFTEICSRITPMEVVSMLNAMYSIFDKLTERNSVYKVETIGDAYMVVAGAPDKDANHAERVCDMALDMVDAITDLKDPSTGQHLRIRVGVHSGAVVAGIVGLKMPRYCLFGDTVNTASRMESTSIAMKVHISESTKVLIGPNYKIIERGEIDVKGKGTMGTYWLEERENRLPLQLTAALQVHPLSPVPPTPTPKTKAIMPPVSKPLTPMMPVSVSLAASMPTSNVPAVDVMASSSSISGLALTAAAAAHMSLHHQAVVAEALTGASVEVALPSVASGATGAAAGGGAPSDDRNSRIYSPVTFKDVARRSVANSPVRSCAQPDQERRRESRSNSTGHVFMRTPSEIFGSLILDTEEFLEDLQISRSSLANNNNNQSPCGFSPTPPFRIGSAPPKPRPSNPDKFTPEELAAMDQLTPPSTAPARETASCSSASLDRDKATKLKKITFSNSSSLDATTPTALAAVVCPMRTKSPPMAVAPVMHMVQASTSKGDGQRPGSKDSVSSISLHSPPPHRSNSAPARPHSMSKAARKAFLAAKQTKAMEKLDKMIEEVQEVESQSVAKAANMRLALYGHDGGGDLAAGGCPLFLPPPPQQQQQQQQSLMPSSISDSGLCSHGHSHAPSCHHMDPKMTNSQSFQHSPRGGITHQCCSGFGHGNGRHSHRMHSNACRIL
chain 2: not shown
**Q.** With B2 as the protein, how does the Km ([2]; other: in the presence of Mg2+) read?
**A.** The Km was 2060 ± 1950 µM.

**Q.** What about the Vmax ([2]; other: in the presence of Mg2+) of the same protein?
**A.** The Vmax was 1.92 ± 0.65 pmoles cGMP/min/mg protein.

**Q.** What about the Km ([2]; other: in the presence of Mn2+) of the same protein?
**A.** Its Km is 149 ± 14 µM.

**Q.** And the Vmax ([2]; other: in the presence of Mn2+)?
**A.** The Vmax was 90.1 ± 2.34 pmoles cGMP/min/mg protein.

B3: Gyc-88EL/89Db (Drosophila melanogaster) (protein)
chain 1: MYGLLLENLSEYIKSVYGEEKWEDIRRQAGIDSPSFSVHQVYPENLLQKLAKKAQQVLGVSERDFMDQMGVYFVGFVGQYGYDRVLSVLGRHMRDFLNGLDNLHEYLKFSYPRMRAPSFICENETKQGLTLHYRSKRRGFVYYTMGQIREVARYFYHKEMHIELVREEILFDTVHVTFQLTFDNRAFTLASLAMTREEKHLPISAHVLFEIFPFCMVFGADMVVRSIGNSLMVILPELLGKKITAWFDLVRPLIAFKFQTILNRTNNIFELVTVDPVTERFDVQNEDLLQHEDGSEPEKSLRLKGQMVYMENWRMIMFLGTPVMPDLTSLITTGLYINDLSMHDFSRDLMLAGTQQSVELKLALDQEQQKSKKLEESMRLLDEEMRRTDELLYQMIPKQVADRLRRGENPIDTCEMFDSVSILFSDIVTFTEICSRITPMEVVSMLNAMYSIFDKLTERNSVYKVETIGDAYMVVAGAPDKDANHAERVCDMALDMVDAITDLKDPSTGQHLRIRVGVHSGAVVAGIVGLKMPRYCLFGDTVNTASRMESTSIAMKVHISESTKVLIGPNYKIIERGEIDVKGKGTMGTYWLEERENRLPLQLTAALQVHPLSPVPPTPTPKTKAIMPPVSKPLTPMMPVSVSLAASMPTSNVPAVDVMASSSSISGLALTAAAAAHMSLHHQAVVAEALTGASVEVALPSVASGATGAAAGGGAPSDDRNSRIYSPVTFKDVARRSVANSPVRSCAQPDQERRRESRSNSTGHVFMRTPSEIFGSLILDTEEFLEDLQISRSSLANNNNNQSPCGFSPTPPFRIGSAPPKPRPSNPDKFTPEELAAMDQLTPPSTAPARETASCSSASLDRDKATKLKKITFSNSSSLDATTPTALAAVVCPMRTKSPPMAVAPVMHMVQASTSKGDGQRPGSKDSVSSISLHSPPPHRSNSAPARPHSMSKAARKAFLAAKQTKAMEKLDKMIEEVQEVESQSVAKAANMRLALYGHDGGGDLAAGGCPLFLPPPPQQQQQQQQSLMPSSISDSGLCSHGHSHAPSCHHMDPKMTNSQSFQHSPRGGITHQCCSGFGHGNGRHSHRMHSNACRIL
chain 2: not shown
**Q.** Which Km ([3]; other: in the presence of Mg2+) does the source give for B3 here?
**A.** The Km was 890 ± 170 µM.

**Q.** And the Vmax ([3]; other: in the presence of Mg2+)?
**A.** The Vmax was 4.83 ± 0.33 pmoles cGMP/min/mg protein.

**Q.** What about the Km ([3]; other: in the presence of Mn2+) of the same protein?
**A.** The Km was 9.4 ± 4.8 µM.

**Q.** What about the Vmax ([3]; other: in the presence of Mn2+) of the same protein?
**A.** The Vmax was 8.72 ± 0.82 pmoles cGMP/min/mg protein.

B4: Gycα-99B/β-100B (Drosophila melanogaster) (protein)
chain 1: MACPFFRRADSLTRQPSVIAEPGGHWALEDEELSDDALTLTHLQMAIQLLTAPSNEDLNTAVTSLVAKYRQNWPNIHKLKLDPQTFKSCANYDYLADIQELLLKMDEASASEILVLLGEELITCCCTGIIERAFRCLGTDLQEFLGSLDGVYDVLKLQEEDVTDTGFVCAGEGELIFTSERPVIAWLLLGSLKALTRMLYKVDVNIKIEPVEGDARRYRYLFSLVKDNSQTMLMGRPTSVSKTIPETVQRSNSSNASDLQMNSSSFCKMFPWHFIMNEQLELVQLGRGFSKLYKPYMADFGCQATTYFDFKRPKGLTMKFRDIVRRTYTPFLIGLNNPPGAVDFPAIGLEIKGQMVHCPESNSLLFIGSPFLDGLDGLTCNGLFISDIPLHDATREVILVGEQARAQDGLRRRMDKIKNSIEEANSAVTKERKKNVSLLHLIFPAEIAEKLWLGSSIDAKTYPDVTILFSDIVGFTSICSRATPFMVISMLEGLYKDFDEFCDFFDVYKVETIGDAYCVASGLHRASIYDAHKVAWMALKMIDACSKHITHDGEQIKMRIGLHTGTVLAGVVGRKMPRYCLFGHSVTIANKFESGSEALKINVSPTTKDWLTKHEGFEFELQPRDPSFLPKEFPNPGGTETCYFLESFRNPALDSELPLVEHINVSMKTISEGGDA
chain 2: MYGFVNYALELLVLKHFGEEIWEKIKKKAMVSMEGQFLVRQIYDDEITYNLIGAAVEILNIPADDILELFGKTFFEFCQDSGYDKILQVLGATPRDFLQNLDALHDHLGTLYPGMRAPSFRCTEKDGELLLHYYSERPGLEHIVIGIVKAVASKLHGVEVEIDIVKRKGEPIDEAEKERAIARENQQLLEDAVATTTTGSATVVLAPSSDAERNNNHNGSNGSNNNGMANNGNTVNVNNNNDGQQIASETDPSIALSTCPIAQDSFDCDGDKEQKCLRLLKNKSDDIERYDHVQFLIREINVAAKSQVDAKKDEVPDDMEFLCEAPLISPATFCKVFPFHLMFDRQMKIVQAGKAVSRVIPRVAEENCSLIEVVEAIRPHLQLNFENILSHINTIYVLQTRQGAMSSRHEQRFLRLKGQMMYIPETDRILFQCYPSVMNLDDLTKKGLYISDVPLHDAARDLVLLSEKFEAEYKLTKNLEMLTDKLQQTFRDLESEKQKTDRLLYSVLPKSVANELRHQRPVPPKRYDSVTLMFSGIVGFGQYCAANTDPDGAMKIVKMLNELYTVFDALTDSKRNLNVYKVETVGDKYMAVSGLPDHCEDHAKCMARVALDMMDMAKNVKMGSNPVQITIGIHSGEVVTGVIGNRVPRYCLFGNTVNLTSRTETTGVPGRINVSEETYRLLCMAINQDDSFHLEYRGPVIMKGKPTPMDCWFLTRATSSILGGTSSTGGSGGGGNGSLDSPLLQPATPTAGAATPIPVVAQRAAGHASVSRTSSAGGGGGGAVVGT
**Q.** For B4, which Km ([4]; other: in the presence of Mg2+) is on record?
**A.** The Km was 370 ± 60 µM.

**Q.** What about the Vmax ([4]; other: in the presence of Mg2+) of the same protein?
**A.** The Vmax was 2.11 ± 0.10 pmoles cGMP/min/mg protein.

**Q.** And the Km ([4]; other: in the presence of Mn2+)?
**A.** Its Km is 31 ± 8 µM.

**Q.** What about the Vmax ([4]; other: in the presence of Mn2+) of the same protein?
**A.** The Vmax was 204 ± 10.6 pmoles cGMP/min/mg protein.

— PMC1307573
